# In US20220040304A1, “A COMPOSITION FOR CANCER CELL DEATH AND ITS USE” (Industry-University Cooperation Foundation Hanyang …, priority 2018, published 2022):
# Entries after “also recorded” stand apart in the source; their conditions may differ.
# B1: RLuc8.6-KR: fusion protein of RLuc8.6 and KillerRed without lead peptide, 69 kDa (protein)
# chain: MRGSHHHHHHGMASMTGGQQMGRDLYDDDDKDPMASKVYDPEQRKRMITGPQWWARCKQMNVLDSFINYYDSEKHAENAVIFLHGNATSSYLWRHVVPHIEPVARCIIPDLIGMGKSGKSGNGSYRLLDHYKYLTAWFELLNLPKKIIFVGHDWGSALAFHYAYEHQDRIKAIVHMESVVDVIESWMGWPDIEEELALIKSEEGEKMVLENNFFVETLLPSKIMRKLEPEEFAAYLEPFKEKGEVRRPTLSWPREIPLVKGGKPDVVQIVRNYNAYLRASDDLPKLFIESDPGFFYNAIVEGAKKFPNTEFVKVKGLHFLQEDAPDEMGKYIKSFVERVLKNEQEFGGGMLCCMRRTKQVEKNDEDQKISEGGPALFQSDMTFKIFIDGEVNGQKFTIVADGSSKFPHGDFNVHAVCETGKLPMSWKPICHLIQYGEPFFARYPDGISHFAQECFPEGLSIDRTVRFENDGTMTSHHTYELDDTCVVSRITVNCDGFQPDGPIMRDQLVDILPNETHMFPHGPNAVRQLAFIGFTTADGGLMMGHFDSKMTFNGSRAIEIPGPHFVTIITKQMRDTSDKRDHVCQREVAYAHSVPRITSAIGSDED
# modifications: pRSET-RLuc8.6-KillerRed
# B2: RLuc8.6-KR-LP: fusion protein of RLuc8.6, KillerRed and lead peptide WLEAAYQRFL, 71 kDa (protein)
# chain: MRGSHHHHHHGMASMTGGQQMGRDLYDDDDKDPMASKVYDPEQRKRMITGPQWWARCKQMNVLDSFINYYDSEKHAENAVIFLHGNATSSYLWRHVVPHIEPVARCIIPDLIGMGKSGKSGNGSYRLLDHYKYLTAWFELLNLPKKIIFVGHDWGSALAFHYAYEHQDRIKAIVHMESVVDVIESWMGWPDIEEELALIKSEEGEKMVLENNFFVETLLPSKIMRKLEPEEFAAYLEPFKEKGEVRRPTLSWPREIPLVKGGKPDVVQIVRNYNAYLRASDDLPKLFIESDPGFFYNAIVEGAKKFPNTEFVKVKGLHFLQEDAPDEMGKYIKSFVERVLKNEQEFGGGMLCCMRRTKQVEKNDEDQKISEGGPALFQSDMTFKIFIDGEVNGQKFTIVADGSSKFPHGDFNVHAVCETGKLPMSWKPICHLIQYGEPFFARYPDGISHFAQECFPEGLSIDRTVRFENDGTMTSHHTYELDDTCVVSRITVNCDGFQPDGPIMRDQLVDILPNETHMFPHGPNAVRQLAFIGFTTADGGLMMGHFDSKMTFNGSRAIEIPGPHFVTIITKQMRDTSDKRDHVCQREVAYAHSVPRITSAIGSDEDGGGWLEAAYQRFL
# modifications: pRSET-RLuc8.6-KillerRed-Lead peptide
# B3: KR: first protein KillerRed, ROS-generating protein (superoxide), expressed from pRSET-KillerRed, 31 kDa (protein)
# chain: MRGSHHHHHHGMASMTGGQQMGRDLYDDDDKDPMLCCMRRTKQVEKNDEDQKISEGGPALFQSDMTFKIFIDGEVNGQKFTIVADGSSKFPHGDFNVHAVCETGKLPMSWKPICHLIQYGEPFFARYPDGISHFAQECFPEGLSIDRTVRFENDGTMTSHHTYELDDTCVVSRITVNCDGFQPDGPIMRDQLVDILPNETHMFPHGPNAVRQLAFIGFTTADGGLMMGHFDSKMTFNGSRAIEIPGPHFVTIITKQMRDTSDKRDHVCQREVAYAHSVPRITSAIGSDED
# modifications: pRSET-KillerRed
# notes: first protein KillerRed, ROS-generating protein (superoxide), expressed from pRSET-KillerRed, 31 kDa
# What was measured:
# BT-474 = experiment: Cell death with Co-h substrate by cell type (SYTOX Green or EthD-1/DAPI); format: cell-based, human; conditions: BT-474, protein 10 μM, Co-h 150 μM for 5 minutes
# Method: (§1) The cells were seeded at 5×10^5 cells/mL in 96-well plates (SPL Cell Culture Plate, 96 well (SPL, Cat #30096)), and cultured at 37° C. for 24 hours (overnight). After the culture for 24 hours, the cells were washed with FBS & phenol red-free media, and 100 μL of FBS & phenol red-free media containing a purified protein (final concentration: 10 μM) was added, followed by reaction at 37° C. for 24 hours.
# (§2) Subsequently, the cells were washed with FBS & phenol red-free media, and 100 μL of FBS & phenol red-free media was added. 100 μL of FBS & Phenol red-free media (RPMI) containing a Co-h substrate solution (final concentration: 150 μM) was added, followed by reaction at 37° C. for 5 minutes.
# (§3) After the reaction, 50 μL of SYTOX Green (final concentration: 261 nM) or 90 μL of ethidium homodimer (EthD-1) (final concentration 1×), which stains DNA of dead cells, was added, followed by reaction at 37° C. for 30 minutes. 10 μL of DAPI staining DNA of live cells was added, followed by reaction for 5 minutes. Cell death was confirmed by observing KillerRed, SYTOX Green, MiniSOG, EthD-1 and DAPI fluorescence using a confocal microscope.
# MCF-10A = experiment: as above; format: cell-based, human; conditions: protein 10 μM, Co-h 150 μM for 5 minutes
# Method: as §1, §2, §3
# SK-BR-3 = experiment: as above; format: cell-based, human; conditions: SK-BR-3, protein 10 μM, Co-h 150 μM for 5 minutes
# Method: as §1, §2, §3
# MDA-MB-231 cancer cells = experiment: IVIS in vivo imaging and tumor size in mice with MDA-MB-231 tumors; parameters: species or system mouse; conditions: NOD-SCID mice, MDA-MB-231 tumor, protein injected into tumor (50 μM), Co-h 5 μg/50 μL subcutaneously
# Method: MDA-MB-231 cancer cells (ATCC) were cultured in RPMI (Corning Inc.) containing 5% FBS (Corning Inc.) and 1% penicillin and streptomycin. Mice used in this experiment were 7-week-old NOD-SCID species, and purchased from Central Lab Animal Inc., and then the mice were raised without diet restriction for 2 weeks for acclimation at this research institute. The weight of a female mouse ranged from 17 to 23 g.
# This animal experiment was conducted after approval by the Institute of Animal Care and Use Committee (IACUC) of the Asan Medical Center in compliance with the guidelines. 1×10^6 cells/50 μL of MDA-MB-231 cells diluted in RPMI and 50 μL of Matrigel (Corning Inc.) were subcutaneously injected into the adipose body of a NOD-SCID mouse. On day 9 after cell injection, a protein containing 20 μL of Matrigel (RLuc8.6-KR-LP, final concentration: 50 μM) was injected into a tumor when the tumor size of the mouse was approximately 40 mm^2. After respiratory anesthesia of the mouse, fluorescence emitted from the protein was imaged using an IVIS spectrum (Xenogen Inc.). For BL-PDT, Co-h (5 μg/50 μL, Nanolight Technology.) was diluted in 1×PBS (Corning) and then subcutaneously injected. The light emission from Co-h was imaged after the IVIS spectrum was set to 5 seconds.
# [1] = Fluorescence assay of purified proteins (excitation/emission); format: physicochemical; conditions: protein 10 μM in 1×PBS
# Method: 100 μL of buffer (1×PBS) containing the protein purified in Example 1 (final concentration: 10 μM) was dispensed into a 96-well plate (SPL Cell Culture Plate, 96 well (SPL, Cat #32096)). Afterward, a fluorescence signal level was detected by fluorescence assay using a Thermo Scientific™ Varioskan™ Flash Multimode Reader.
# [2] = Bioluminescence assay of purified proteins with Co-h substrate (BRET); format: physicochemical; conditions: protein 1 μM, Co-h 50 μM, 1×PBS
# Method: In addition, 100 μL of buffer (1×PBS) containing the protein purified in Example 1 (final concentration: 1 μM) was dispensed into a 96-well plate (SPL Cell Culture Plate, 96 well (SPL, Cat #30196)), and bioluminescence assay was then performed using 50 μL of buffer (1×PBS) containing a Co-h substrate solution (final concentration: 50 μM), which is a wild-type 2-deoxy derivative. Bioluminescence intensity was immediately measured at a wavelength of 300 to 800 nm using a Thermo Scientific™ Varioskan™ Flash Multimode Reader.
molecule,measurement,setting,value
B1,cell death with Co-h substrate,BT-474,none of the six breast cancer cell lines were killed
same,cell death with Co-h substrate,MCF-10A,none of the six breast cancer cell lines were killed
same,cell death with Co-h substrate,SK-BR-3,none of the six breast cancer cell lines were killed
B2,tumor size,MDA-MB-231 cancer cells,the smallest; also recorded: tumor growth is inhibited
B3,emission wavelength (fluorescence),[1],610 nm
same,excitation wavelength,[1],585 nm
same,emission in bioluminescence assay (BRET),[2],610 nm
